System: K4 kissing-loop RNA reporter
Experiment: apparent KD of K4 kissing-loop reporter; higher = weaker reporter binding
Settings: Eterna round: R107
Experimental: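 RNA-MaP round R107: designed RNA switches with theophylline, tryptophan, arginine or FMN aptamers are transcribed on-chip within common flanks. They are titrated with a labelled K4 kissing-loop RNA reporter in RNA-MaP buffer (100 mM Tris pH 7.5, 80 mM KCl, 4 mM MgCl2), without ligand or with the indicated ligand. Median apparent KD per design.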

[1] = input ligand: theophylline 20 uM
[2] = input ligand: tryptophan 2.4 mM
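Note: bound reporter read as fluorescence of individual clusters on recovered sequencing chips by microscopy, with normalized cluster intensities fitted with a binding model.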

| Sequence | apparent KD of K4 kissing-loop reporter (input ligand: FMN 200 uM) | apparent KD of K4 kissing-loop reporter (input ligand: arginine 13.2 mM) | apparent KD of K4 kissing-loop reporter (input ligand: none) | apparent KD of K4 kissing-loop reporter [1] | apparent KD of K4 kissing-loop reporter [2] |
| --- | --- | --- | --- | --- | --- |
| GGUGCUGGCCAGUGAUGUUGGCGAAUACUGAAGGAUAUGAUAGGCGUCAGAAGGUCAAGAGUAAUAUCUAGAAUGAAUAGUGAUA [theeternabot_sameState_KL_FMN_A_38] | 0.296 µM | 0.289 µM | 0.329 µM | 0.439 µM | 0.285 µM |
| GGUGCUGUCUGUGCCGCCCUCCUCGUCCCUCGAGGACCGGUACGGCCGCCACUCGAGUGAUGUUCGGGUAGCGAUCCCUGCUAGC [Bdazzled - #18 Exc. Tryptophan A] | 0.275 µM | 0.194 µM | 0.246 µM | 0.229 µM | 0.256 µM |
| GGUGUUGUUUGUGCCGCCUUCCUCGUUCCUCGAGGACCGGUACGGCCGCCACUCGAGUGAUGUUUGGGUAGCGAUCCCUGUUAGU [Bdazzled - #11 Exc. Tryptophan A] | 0.764 µM | 0.573 µM | 0.892 µM | 0.638 µM | 0.778 µM |
| GGUGUUGUUUGUGCCGUCUUCCUCGUUCCUCGAGGACCGGUACGGCCGCCACUCGAGUGAUGUUUGGGUAGCGAUCCCUGUUAGU [Bdazzled - #10 Exc. Tryptophan A] | 0.695 µM | 0.541 µM | 0.647 µM | 0.602 µM | 0.582 µM |
| GGUGUUGUUUGUGCCGUUUUCCUCGUUCCUCGAGGACCGGUACGGCCGCCACUCGAGUGAUGUUUGGGUAGCGAUCCCUGUUAGU [Bdazzled - #9 Exc. Tryptophan A] | 0.868 µM | 0.646 µM | 0.871 µM | 0.802 µM | 0.766 µM |
| GGUUCCUCAGUGAUGUUGAGGUGACCUCGGCAGGAUAUAGGCAUUACUAGAAGGGCCAAAAGAACCCUGUCCAGCGACACAGGGA [Zalatiat] | 0.159 µM | 0.238 µM | 0.305 µM | 0.25 µM | 0.232 µM |
| GGUUUAUAGGAGGAUACCAGUACAAAUAAAGUACAUUAAUAGUAGAGUGAUGUUCUAAAGUACCCUUGGCAGCUUAGAUUAAGUU [ExTheophylB.G] | 0.0926 µM | 0.181 µM | 0.111 µM | 0.188 µM | 0.0764 µM |
| GUAAGAUGAGGAGGAGGAUGAAUUACUGAAGGAGCGCAUAUAAAUGCAGGUAGGUCGCGGUAAAGAAGUAUAGUGAUGUUAUAUA [#20 K4 Arginine A Same State] | 0.452 µM | 0.508 µM | 0.464 µM | 0.459 µM | 0.474 µM |
| GUAGCACUUGGUAGUGAUGUUACCAAGGACAAGGAUAUCAUCUCAAUGAGAAGGUGUCCUUGGUAACAGCUACGGGAAUAUCCCA [Omei KL FMN A Exc D v2] | 0.275 µM | 0.194 µM | 0.226 µM | 0.242 µM | 0.246 µM |
| GUAGGAUGAGGAGGAGGAAGAAAUACUGAAGGAGCGCAAAGAAAUGCAGGUAGGUCGCGGUAAAGAAGUAUAGUGAUGUUAUAUA [SSArgA.C] | 0.452 µM | 0.45 µM | 0.406 µM | 0.411 µM | 0.373 µM |
| GUAGGAUGAGGAGGAGGAUGAAUUACUGAAGGAGCGCAUAGAAAUGCAGGUAGGUCGCGGUAAAGAAGUAUAGUGAUGUUAUAUA [SSArgA.F] | 0.421 µM | 0.42 µM | 0.448 µM | 0.483 µM | 0.292 µM |
| GUAUCAGUGAUGUUGAUAGGCGAGCGGGAUACCAGCCAAGACUCAGGCCCUUGGCAGCCCACAUAUCCCACGUAGAUAGUAGCUC [Same State - Theophylline A (Freestyle 16)] | 0.137 µM | 0.105 µM | 0.128 µM | 0.139 µM | 0.123 µM |
| GUAUCGCUAGGAGGAUAUUUCAAUCCGCCUAUAAUAGGUGGUACGGAGUGAUGUUCCGAUUUACGGAAAGAAGGCCUAGUGAUAC [FMN B 16] | 0.142 µM | 0.265 µM | 0.297 µM | 0.283 µM | 0.278 µM |
| GUAUCGCUAGGAGGAUAUUUCAAUUCGCCUAUAAAAGGUGAUACGGAGUGAUGUUCCGAUUUACGGAAAGAAGGCCUAGUGAUAC [FMN B 9] | 0.137 µM | 0.259 µM | 0.282 µM | 0.262 µM | 0.273 µM |
| GUAUCGCUAGGAGGAUAUUUCAAUUCGCCUAUAAUAGGUGAUACGGAGUGAUGUUCCGAUUUACGGAAAGAAGGCCUAGUGAUAC [FMN B 10] | 0.144 µM | 0.229 µM | 0.244 µM | 0.239 µM | 0.237 µM |
| GUAUCGCUAGGAGGAUAUUUCGUUUUUCAUAGCAAUGGCUAUGCGGAGUGAUGUUCCGAUUUACCGGAAGAAGGCCUAGUGAUAC [FMN B 26] | 0.109 µM | 0.172 µM | 0.202 µM | 0.205 µM | 0.165 µM |

| Sequence | apparent KD of K4 kissing-loop reporter (input ligand: FMN 200 uM) | apparent KD of K4 kissing-loop reporter (input ligand: arginine 13.2 mM) | apparent KD of K4 kissing-loop reporter (input ligand: none) | apparent KD of K4 kissing-loop reporter [1] | apparent KD of K4 kissing-loop reporter [2] |
| --- | --- | --- | --- | --- | --- |
| GUCAGACCGGGACUCCAGUGAUGUUGGAGGCAGGAUAUCCAGUCGAGGAGAAGGGCCAGGGAUAUCGAGCUGCUCGGUUUGUAGU [Xexezaes] | 0.0724 µM | 0.108 µM | 0.0773 µM | 0.102 µM | 0.0674 µM |
| GUCCACACUGCAGGAUAUGGAGGAAUAGCGAGGGAGUGUGGAAGCACACCUCUGGCAGUGAUGUUGCCAGAAGGGCGGUGCGGCG [Cemaorar] | 0.111 µM | 0.0755 µM | 0.0764 µM | 0.069 µM | 0.0934 µM |
| GUCCACACUGCAGGAUAUGGAGGUAUAGCGAGGGAGUUUGGAAGCACACCUCUGGCAGUGAUGUUGCCAGAAGGGCGGUGCGGCG [Rauserin] | 0.0824 µM | 0.0895 µM | 0.0992 µM | 0.0643 µM | 0.0839 µM |
| GUCCCAGUGAUGUUGGUAGGCGAGCGGGAUACCAGCGAAGACUCACGCCCUUGGCAGCCCACAUAUCCCACGUAGGGAUUAGCUC [Same State - Theophylline A (Freestyle 20)] | 0.336 µM | 0.359 µM | 0.378 µM | 0.357 µM | 0.351 µM |
| GUCUAGCUAGCAGGAUAUAGCUGGUAGUGAUGUUACCACUAGAACUCUGCGGAAACGCAGAGUAUCCUAGAAGGGCUAGCUAGAC | 0.095 µM | 0.065 µM | 0.0754 µM | 0.0639 µM | 0.0668 µM |
| GUCUCAAAAGAGGCAAGCACUCACGAGGACAAGGAUAUCAUAUCAAUGAGAAGGUGUCCUCGUCCUCAGUGAUGUUGAGGAGUGC [Omei KL FMN A SS E v4] | 0.41 µM | 0.2 µM | 0.247 µM | 0.233 µM | 0.257 µM |
| GUCUCCGUCGAUGAUACCAGUCGAUGUACGUCAGGUACCCUUUGAGUGAUGUUCAGAUUAGACCCUUGGCAGCAUAUCGAGGCUC [theeternabot_exclusion_KL_Theo_B_24] | 0.37 µM | 0.452 µM | 0.514 µM | 0.444 µM | 0.303 µM |
| GUCUGAUGCGUUGAUACCAGUCCUUCAGUGAUGUUGCAAGCGCGGCCUAUCAAGCAAUCCGACCCUUGGCAGCAAUAGGUCCGAA [theeternabot_exclusion_KL_Theo_B_9] | 0.892 µM | 0.568 µM | 0.85 µM | 0.872 µM | 0.661 µM |
| GUGAAGGAGCAGCAGUGAUGUUGCUGAGACUAGGAUAUCAGGAAACUGAGAAGGAGUCAACUCCUUCACCUAGACUGCAACAUAA [KL-SSFMN-A13] | 0.173 µM | 0.167 µM | 0.18 µM | 0.249 µM | 0.152 µM |
| GUGACACGUGAUGAUACCAGUCCACGGAAGUUCCUUAGUGAUGUUAACCUUGCUUUUUCUGACCCUUGGCAGCAUUAGUUGAGAA [theeternabot_sameState_KL_Theo_B_42] | 0.332 µM | 0.166 µM | 0.204 µM | 0.304 µM | 0.237 µM |
| GUGACCUACUCAGGAUAUCCGCAGUGAUGUUGCGGUUGGCCUGAGCGACAUGAAAAUCUUACUACAGGAGAAGGGAGAGGGUUAC [Leanteti] | 0.113 µM | 0.0927 µM | 0.109 µM | 0.0892 µM | 0.0915 µM |
| GUGACGCGGACGGCCGCCACUCCGGUGACCGCUCCGUGCCGCCCUGCGCGAGUGAUGUUCGCCAGGAGGACCGGGUCCGACUUUA [Soesente] | 0.107 µM | 0.101 µM | 0.106 µM | 0.0894 µM | 0.0963 µM |
| GUGCAAAGCACCGGCACGAGCAGCCUAAAGGAGGAUAUGACGAAAGUCAGAAGGUCUAGUGAUGUUAGGCCUUGCUUGAGUCGAA [Omei KL FMN A Exc B v3] | 0.288 µM | 0.278 µM | 0.402 µM | 0.405 µM | 0.327 µM |
| GUGCAGUGAUGUUGCACGAGGAAAGACGAUACCAGCCGCAAAUGUGGCCCUUGGCAGCGUGGGCUAGCACAAAAUAUGCUAGUCU [Ricegeusat] | 0.131 µM | 0.113 µM | 0.119 µM | 0.0989 µM | 0.108 µM |
| GUGCAGUGAUGUUGCACGAGGAAAGACGAUACCAGCCGUAAAUAAGGCCCUUGGCAGCGUAGGCUAGCAUAAAGUACGCUAGUCC [Enarines] | 0.11 µM | 0.105 µM | 0.109 µM | 0.101 µM | 0.0884 µM |
| GUGCAGUGAUGUUGCACGAGGAAAGACGAUACCAGCCGUAAAUAAGGCCCUUGGCAGCGUAGGCUAGCAUAAAGUAUGCCAGUCU [Geleerra] | 0.117 µM | 0.112 µM | 0.121 µM | 0.113 µM | 0.0965 µM |

Source: the supplement of paper PMC9170038
